Data on four molecules can be found in PMC6642826.

Test [1] has as its target Oregon Green 488-labelled RelA dimerization domain homodimer (murine) (UniProt Q04207). Kind of test: fluorescence polarisation. A general note: Polarisation of emitted light reports the rotation of a fluorescent probe.
Test [2] deals with RelA homodimer as used for SPR (murine) (UniProt Q04207). Kind of test: SPR. (Surface plasmon resonance follows binding to a sensor surface in real time, without labels.)
The target of test [3] is Oregon Green 488-labelled RelA(19–321)-p50(39–350) heterodimer (murine) (UniProt Q04207). Kind of test: fluorescence polarisation.
Test [4] addresses Oregon Green 488-labelled p50(39–350)-cRel(1–294) heterodimer (murine) (UniProt P25799). Nature of the test: fluorescence polarisation.
Test [5] has as its target RelA-p50 heterodimer as used for SPR (murine) (UniProt Q04207). Kind of test: SPR.
For another test, the target named is RelA (Mus musculus) (UniProt Q04207). The conditions noted are these: cited from earlier work.
The target of test [6] is labelled p50(39–350) homodimer (murine) (UniProt P25799). Nature of the test: fluorescence polarisation.

Broadly, the Kd is the constant that tells how readily two partners part at equilibrium. Take “IKBα(67–287) (from UniProt P25963 67-287) (domain or fragment)”: the results for the Kd in test [1] and in test [2] were 0.28 nM and 0.054 nM, respectively.

Take IKBβ(50–359) (domain or fragment): the Kd in test [1] was 0.072 nM; in test [3] it was 0.89 nM; in test [4], 0.92 nM; in test [2], 0.07 nM; in test [5], 1.1 nM.

Turning to RelA (from UniProt Q04207), in the test with RelA (Mus musculus), the Kd is 800 nM.

B1: (His)6-IKBε(40–364) (domain or fragment)
chain: SSQSGCPQPWRHAPETHKEPEKEDADGERADSTYASSSLTESFPLLERPEAKDPSPPAPGSPLPPAGVLSPQQLEALTYISEDGDTLLHLAVIHEAPSVLFCCLAFLPQEVLDIQNNLYQTALHLAVHLDQPDVVRALVLKGASRILQDQHGDTALHVACRRQNLACACCLLEEQPEPGRQLSHPLDLQLKNWQGLACLHIATLQRNQPLIELLLQNGADIDVQEGTSGKTALHLAVETQERSLVQFLLQAGARVDARMLNGCTPLHLAAGRGLNSISSTLCEAGADSLLLNVEDETPQDLAEDLLSYLPFDDLKISGKPLLCTD
Consider B1, for which the Kd in test [6] stood at 0.81 nM.
